The supplement of paper PMC10567573

B1: FAM46D (parent)
chain: FQEAMTHLQHKLICTRKPEEIRGG

Variants of: B1
Assay: protein stability index of a GFP-peptide fusion (GPS, HEK-293T) (PSI 1-6); higher = more stable
Details: c terminus: a fixed tail appended
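Note: lentivirally expressed fusions sorted by FACS into six bins by GFP to DsRed ratio, PSI derived from sequencing read proportions per bin multiplied by bin number.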

Protein stability index, by site and new letter:
A4: I 2.42; K 3.51; M 3.38; N 3.36; P 2.62; Q 2.98; R 2.75; S 2.99; T 3.29; V 2.63; W 1.58; Y 2
M5: A 3.21; C 3.35; D 3.44; E 4.43; F 1.93; G 3.54; H 3.79; I 2.22; K 2.94; L 1.64; N 3.53; P 3.37; R 3.13; S 3.67; T 3.12; V 2.97; W 2.1; Y 2.16
T6: A 2; D 3.41; E 3.38; F 2.11; H 2.22; I 2.15; K 1.86; L 2.04; M 1.66; N 2.11; P 3.04; Q 2.13; R 2.69; S 3.2; V 2.86; W 1.49; Y 1.54
H7: A 2.44; C 2.85; D 3.54; E 3.86; G 2.71; I 1.59; K 2.61; L 1.67; M 1.11; N 3.19; P 3.4; Q 2.93; R 2.66; S 3.3; T 2.77; V 2.48; W 1.95; Y 3.71
L8: A 3.91; C 3.23; D 4.31; E 3.69; F 2.42; G 3.09; H 3.57; I 2.88; K 2.29; M 3.24; N 3.76; P 2.99; Q 3.68; R 3.31; S 3.62; T 3.35; V 2.07; W 1.89; Y 2.34
Q9: A 2.25; C 1.89; D 2.89; E 3.36; F 2.61; G 2.09; H 2.67; K 2.38; M 2.21; N 1.79; R 2.7; T 2.6; W 1.16; Y 2.3
H10: C 2.72; D 3.14; E 3.79; F 1.73; G 2.67; K 2.94; L 2.24; M 1.44; N 2.93; P 3.16; Q 3.05; R 2.71; S 2.5; T 3.52; V 1.92; Y 2.11
K11: A 2.54; C 2.89; D 2.88; E 3.88; F 2.16; G 2.38; H 2.44; I 2.03; L 2.79; M 1.57; N 2.17; P 2.44; Q 2.41; R 2.83; S 3.15; T 2.72; V 1.86; W 1.58; Y 1.66
L12: A 3.49; C 2.84; D 2.98; E 3.27; F 2.38; G 2.72; H 3.44; I 2.78; K 2.9; M 3.84; N 4.18; P 2.8; Q 3.87; R 2.71; S 3.4; T 3.99; V 3.06; W 1.27; Y 2.31
I13: A 2.76; C 3.07; D 2.57; E 3.67; F 1.73; G 2.67; H 2.54; K 3.67; L 2.13; M 2.61; N 3.33; P 2.95; Q 3.58; R 2.72; S 2.94
